The source of these data is article PMC9772344.

Holding throughout (details): chain shown with the change; transfected HeLa cells; n = 3 per group; parent: est. 1.0; read off a plot
Test [1] has as its target Orai1, Q96D31. The test can be described thus: Co-IP (GLT-1 capture antibody, immunoblot for Orai1, band quantification).
In test [2] the target is stromal-interacting molecule 1 (STIM1), Q13586. In words: Co-IP (STIM1 capture antibody, immunoblot for GLT-1, band quantification). (In western blotting, separated proteins are transferred to a membrane and probed.)
Chain of stromal-interacting molecule 1 (STIM1), Q13586 (Q13586 23-685): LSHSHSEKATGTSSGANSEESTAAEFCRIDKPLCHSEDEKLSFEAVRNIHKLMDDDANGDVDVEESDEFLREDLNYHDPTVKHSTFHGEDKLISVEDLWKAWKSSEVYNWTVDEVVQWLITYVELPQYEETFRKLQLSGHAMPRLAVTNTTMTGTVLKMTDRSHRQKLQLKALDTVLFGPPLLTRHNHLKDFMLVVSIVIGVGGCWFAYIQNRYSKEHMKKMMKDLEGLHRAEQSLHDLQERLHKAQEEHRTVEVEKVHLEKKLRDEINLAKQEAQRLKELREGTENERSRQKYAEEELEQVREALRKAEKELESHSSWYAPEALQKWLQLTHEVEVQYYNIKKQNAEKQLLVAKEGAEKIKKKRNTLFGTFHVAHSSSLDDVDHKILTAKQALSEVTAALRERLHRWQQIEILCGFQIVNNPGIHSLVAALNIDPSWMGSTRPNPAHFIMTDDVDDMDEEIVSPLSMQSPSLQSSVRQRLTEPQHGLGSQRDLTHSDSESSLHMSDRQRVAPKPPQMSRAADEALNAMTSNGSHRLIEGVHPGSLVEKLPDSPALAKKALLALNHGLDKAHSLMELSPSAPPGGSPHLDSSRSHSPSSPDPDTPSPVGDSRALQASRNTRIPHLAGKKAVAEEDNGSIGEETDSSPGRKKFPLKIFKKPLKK
The target is the same in test [3]. The test can be described thus: Co-IP (GLT-1 capture antibody, immunoblot for STIM1, band quantification).

Chain of Orai1, Q96D31 (Q96D31 whole entry): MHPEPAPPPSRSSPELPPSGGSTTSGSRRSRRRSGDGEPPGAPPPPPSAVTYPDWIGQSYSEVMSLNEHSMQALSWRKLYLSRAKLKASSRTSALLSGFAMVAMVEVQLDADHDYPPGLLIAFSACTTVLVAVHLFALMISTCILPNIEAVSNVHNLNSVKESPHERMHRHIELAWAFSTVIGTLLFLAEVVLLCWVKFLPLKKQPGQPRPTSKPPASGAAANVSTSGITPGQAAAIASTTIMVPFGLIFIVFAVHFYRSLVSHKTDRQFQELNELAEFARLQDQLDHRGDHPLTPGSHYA

B1: glutamate transporter GLT-1 (excitatory amino acid transporter 2, EAAT2), WT plasmid, P43006 G82R; L85P (protein)
chain: MASTEGANNMPKQVEVRMHDSHLSSDEPKHRNLGMRMCDKLGKNLLLSLTVFGVILGAVCGGLLRLASPIHPDVVMLIAFPRDIPMRMLKMLILPLIISSLITGLSGLDAKASGRLGTRAMVYYMSTTIIAAVLGVILVLAIHPGNPKLKKQLGPGKKNDEVSSLDAFLDLIRNLFPENLVQACFQQIQTVTKKVLVAPPSEEANTTKAVISMLNETMNEAPEETKIVIKKGLEFKDGMNVLGLIGFFIAFGIAMGKMGEQAKLMVEFFNILNEIVMKLVIMIMWYSPLGIACLICGKIIAIKDLEVVARQLGMYMITVIVGLIIHGGIFLPLIYFVVTRKNPFSFFAGIFQAWITALGTASSAGTLPVTFRCLEDNLGIDKRVTRFVLPVGATINMDGTALYEAVAAIFIAQMNGVILDGGQIVTVSLTATLASIGAASIPSAGLVTMLLILTAVGLPTEDISLLVAVDWLLDRMRTSVNVVGDSFGAGIVYHLSKSELDTIDSQHRMQEDIEMTKTQSIYDDKNHRESNSNQCVYAAHNSVVIDECKVTLAANGKSADCSVEEEPWKREK
Take B1: the response (relative band intensity) in test [1] is 0.27; in test [2], 0.12; in test [3], 0.08.

B2: glutamate transporter GLT-1 (excitatory amino acid transporter 2, EAAT2), WT plasmid, P43006 L85P (protein)
chain: MASTEGANNMPKQVEVRMHDSHLSSDEPKHRNLGMRMCDKLGKNLLLSLTVFGVILGAVCGGLLRLASPIHPDVVMLIAFPGDIPMRMLKMLILPLIISSLITGLSGLDAKASGRLGTRAMVYYMSTTIIAAVLGVILVLAIHPGNPKLKKQLGPGKKNDEVSSLDAFLDLIRNLFPENLVQACFQQIQTVTKKVLVAPPSEEANTTKAVISMLNETMNEAPEETKIVIKKGLEFKDGMNVLGLIGFFIAFGIAMGKMGEQAKLMVEFFNILNEIVMKLVIMIMWYSPLGIACLICGKIIAIKDLEVVARQLGMYMITVIVGLIIHGGIFLPLIYFVVTRKNPFSFFAGIFQAWITALGTASSAGTLPVTFRCLEDNLGIDKRVTRFVLPVGATINMDGTALYEAVAAIFIAQMNGVILDGGQIVTVSLTATLASIGAASIPSAGLVTMLLILTAVGLPTEDISLLVAVDWLLDRMRTSVNVVGDSFGAGIVYHLSKSELDTIDSQHRMQEDIEMTKTQSIYDDKNHRESNSNQCVYAAHNSVVIDECKVTLAANGKSADCSVEEEPWKREK
With B2, the response (relative band intensity) in test [1] is 0.17; in test [2], 0.13; in test [3], 0.12.

B3: glutamate transporter GLT-1 (excitatory amino acid transporter 2, EAAT2), WT plasmid, P43006 G82R (protein)
chain: MASTEGANNMPKQVEVRMHDSHLSSDEPKHRNLGMRMCDKLGKNLLLSLTVFGVILGAVCGGLLRLASPIHPDVVMLIAFPRDILMRMLKMLILPLIISSLITGLSGLDAKASGRLGTRAMVYYMSTTIIAAVLGVILVLAIHPGNPKLKKQLGPGKKNDEVSSLDAFLDLIRNLFPENLVQACFQQIQTVTKKVLVAPPSEEANTTKAVISMLNETMNEAPEETKIVIKKGLEFKDGMNVLGLIGFFIAFGIAMGKMGEQAKLMVEFFNILNEIVMKLVIMIMWYSPLGIACLICGKIIAIKDLEVVARQLGMYMITVIVGLIIHGGIFLPLIYFVVTRKNPFSFFAGIFQAWITALGTASSAGTLPVTFRCLEDNLGIDKRVTRFVLPVGATINMDGTALYEAVAAIFIAQMNGVILDGGQIVTVSLTATLASIGAASIPSAGLVTMLLILTAVGLPTEDISLLVAVDWLLDRMRTSVNVVGDSFGAGIVYHLSKSELDTIDSQHRMQEDIEMTKTQSIYDDKNHRESNSNQCVYAAHNSVVIDECKVTLAANGKSADCSVEEEPWKREK
For the molecule B3, the response (relative band intensity) amounted to 0.22 in test [1], 0.15 in test [2] and 0.15 in test [3].
